Data reported in patent US20200262877A1, “ION CHANNEL-BINDING PEPTIDES AND METHODS OF USE THEREOF” (priority 2017, published 2020).

Tests used:
TRPV1 = molecular target: T1, TRPV1 (Homo sapiens, UniProt Q8NER1); test: Ion channel panel (IonWorks Barracuda): TRPV1; type: cell-based; conditions: 100% = no change, <100% = inhibition
T1 construct: host or cells: HEK293 or CHO
Procedure, shortened: (§1)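 Peptides were tested in duplicate at final 20 μM and 200 nM, with concentration set by amino acid analysis, in HEPES-buffered saline. They were applied for at least 5 min to HEK293 or CHO cells transfected with each channel. Currents were expressed as % inhibition, 1-(Ipeptide/Icontrol)×100, or % activation, Ipeptide/Icontrol×100, against a channel-matched reference compound.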

NR2B = molecular target: T2, NR2B (Homo sapiens, UniProt Q13224); test: Ion channel panel (IonWorks Barracuda): NR2B; type: cell-based; conditions: 100% = no change, <100% = inhibition
T2 construct: host or cells: HEK293 or CHO
Procedure, shortened: as §1

α4β2 = molecular target: T3, α4β2 (Homo sapiens, UniProt P17787+P43681); test: Ion channel panel (IonWorks Barracuda): α4β2; type: cell-based; conditions: 100% = no change, <100% = inhibition
T3 construct: host or cells: HEK293 or CHO
Procedure, shortened: as §1

Kv1.1 = molecular target: T4, Kv1.1 (Homo sapiens, UniProt Q09470); test: cell-based; type: cell-based; conditions: 100% = no change, <100% = inhibition
T4 construct: host or cells: HEK293 or CHO
Procedure, shortened: as §1

Kv1.3 = molecular target: T5, Kv1.3 (Homo sapiens, UniProt P22001); test: cell-based; type: cell-based; conditions: 100% = no change, <100% = inhibition
T5 construct: host or cells: HEK293 or CHO
Procedure, shortened: as §1

Kv1.2 = molecular target: T6, Kv1.2 (Homo sapiens, UniProt P16389); test: cell-based; type: cell-based; conditions: 100% = no change, <100% = inhibition
T6 construct: host or cells: HEK293 or CHO
Procedure, shortened: as §1

GABA = test: Ion channel panel (IonWorks Barracuda): GABA; type: cell-based; conditions: 100% = no change, <100% = inhibition
Procedure, shortened: as §1

5HT3a = molecular target: T7, 5HT3a (Homo sapiens, UniProt P46098); test: Ion channel panel (IonWorks Barracuda): 5HT3a; type: cell-based
T7 construct: host or cells: HEK293 or CHO
T7 sequence (P46098 whole entry, looked up): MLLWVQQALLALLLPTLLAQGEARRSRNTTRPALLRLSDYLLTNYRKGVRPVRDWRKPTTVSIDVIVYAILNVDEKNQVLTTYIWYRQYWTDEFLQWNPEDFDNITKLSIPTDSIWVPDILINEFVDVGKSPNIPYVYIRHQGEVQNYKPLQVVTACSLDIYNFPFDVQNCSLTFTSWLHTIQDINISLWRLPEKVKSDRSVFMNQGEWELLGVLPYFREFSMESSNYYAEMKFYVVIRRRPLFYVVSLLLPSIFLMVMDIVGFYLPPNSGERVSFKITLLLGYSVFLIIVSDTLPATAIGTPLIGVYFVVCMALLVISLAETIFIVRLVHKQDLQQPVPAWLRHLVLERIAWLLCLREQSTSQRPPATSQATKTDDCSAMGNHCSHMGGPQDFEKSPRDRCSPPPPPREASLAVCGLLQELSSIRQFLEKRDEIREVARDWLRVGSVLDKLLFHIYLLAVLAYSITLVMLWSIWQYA
Procedure, shortened: as §1

α3β4 = molecular target: T8, α3β4 (Homo sapiens, UniProt P30926+P32297); test: Ion channel panel (IonWorks Barracuda): α3β4; type: cell-based; conditions: 100% = no change, <100% = inhibition
T8 construct: host or cells: HEK293 or CHO
Procedure, shortened: as §1

Nav1.7 = molecular target: T9, Nav1.7 (Homo sapiens, UniProt Q15858); test: cell-based; type: cell-based; conditions: 100% = no change; for Activity of Nav1.7 with peptide, expressed as a percentage of the reference compound: peptide at 0.2 μM; for Activity of Nav1.7 with peptide (percentage of the reference compound): peptide at 20 μM
T9 construct: host or cells: HEK293 or CHO
T9 sequence (Q15858 whole entry): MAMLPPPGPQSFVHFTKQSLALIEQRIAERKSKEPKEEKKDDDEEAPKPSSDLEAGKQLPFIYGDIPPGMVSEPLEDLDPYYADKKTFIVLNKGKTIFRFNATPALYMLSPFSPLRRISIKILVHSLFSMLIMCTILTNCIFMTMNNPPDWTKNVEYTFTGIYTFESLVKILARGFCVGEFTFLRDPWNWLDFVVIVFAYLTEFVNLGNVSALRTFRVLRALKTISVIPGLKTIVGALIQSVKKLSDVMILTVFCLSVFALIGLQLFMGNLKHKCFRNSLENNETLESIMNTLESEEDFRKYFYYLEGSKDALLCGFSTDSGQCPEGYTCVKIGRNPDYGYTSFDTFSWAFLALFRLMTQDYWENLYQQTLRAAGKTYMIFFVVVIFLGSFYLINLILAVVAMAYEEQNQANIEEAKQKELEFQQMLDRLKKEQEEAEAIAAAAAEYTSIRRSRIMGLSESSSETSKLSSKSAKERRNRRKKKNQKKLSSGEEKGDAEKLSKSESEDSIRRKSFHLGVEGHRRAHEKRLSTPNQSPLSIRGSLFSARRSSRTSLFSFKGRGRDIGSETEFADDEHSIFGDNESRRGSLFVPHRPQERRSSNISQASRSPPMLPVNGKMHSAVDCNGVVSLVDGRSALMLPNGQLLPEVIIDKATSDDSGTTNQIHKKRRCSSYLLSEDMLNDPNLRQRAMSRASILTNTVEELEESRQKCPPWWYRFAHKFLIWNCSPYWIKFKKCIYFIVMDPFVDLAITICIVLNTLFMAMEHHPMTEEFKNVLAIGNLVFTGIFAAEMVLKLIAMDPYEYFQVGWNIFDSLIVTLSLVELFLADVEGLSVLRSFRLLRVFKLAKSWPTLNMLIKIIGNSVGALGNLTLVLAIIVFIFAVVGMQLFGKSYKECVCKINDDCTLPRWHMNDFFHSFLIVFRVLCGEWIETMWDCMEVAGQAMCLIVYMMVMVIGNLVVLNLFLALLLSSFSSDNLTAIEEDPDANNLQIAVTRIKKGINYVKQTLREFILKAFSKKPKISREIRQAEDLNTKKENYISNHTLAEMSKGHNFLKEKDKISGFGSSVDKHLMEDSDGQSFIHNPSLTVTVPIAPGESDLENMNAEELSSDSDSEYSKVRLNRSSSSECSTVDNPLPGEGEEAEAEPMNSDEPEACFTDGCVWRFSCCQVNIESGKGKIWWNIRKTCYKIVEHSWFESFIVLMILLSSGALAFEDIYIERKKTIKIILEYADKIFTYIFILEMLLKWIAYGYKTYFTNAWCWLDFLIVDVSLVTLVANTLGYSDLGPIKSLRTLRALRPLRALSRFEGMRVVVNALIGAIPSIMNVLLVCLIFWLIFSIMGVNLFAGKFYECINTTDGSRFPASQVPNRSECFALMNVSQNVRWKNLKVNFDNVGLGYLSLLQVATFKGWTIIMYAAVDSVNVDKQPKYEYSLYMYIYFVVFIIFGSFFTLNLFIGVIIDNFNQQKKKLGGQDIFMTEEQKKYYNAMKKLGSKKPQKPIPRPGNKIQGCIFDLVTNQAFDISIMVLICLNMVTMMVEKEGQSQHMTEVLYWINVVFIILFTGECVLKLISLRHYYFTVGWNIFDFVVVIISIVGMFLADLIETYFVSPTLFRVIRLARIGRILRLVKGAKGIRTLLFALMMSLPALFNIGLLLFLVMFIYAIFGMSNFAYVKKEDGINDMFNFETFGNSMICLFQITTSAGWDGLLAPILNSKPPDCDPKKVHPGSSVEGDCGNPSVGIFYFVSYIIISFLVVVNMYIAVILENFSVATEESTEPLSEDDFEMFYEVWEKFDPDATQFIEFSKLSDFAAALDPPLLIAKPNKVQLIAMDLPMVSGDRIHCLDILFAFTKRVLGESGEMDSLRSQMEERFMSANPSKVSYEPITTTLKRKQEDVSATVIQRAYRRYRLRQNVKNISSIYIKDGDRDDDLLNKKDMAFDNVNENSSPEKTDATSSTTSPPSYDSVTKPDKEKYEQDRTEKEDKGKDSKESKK

NR2A = molecular target: T10, NR2A (Homo sapiens, UniProt Q12879); test: Ion channel panel (IonWorks Barracuda): NR2A; type: cell-based; conditions: 100% = no change, <100% = inhibition
T10 construct: host or cells: HEK293 or CHO
Procedure, shortened: as §1

Kv2.1 = molecular target: T11, Kv2.1 (Homo sapiens, UniProt Q14721); test: cell-based; conditions: 100% = no change, <100% = inhibition
T11 construct: host or cells: HEK293 or CHO
Procedure, shortened: as §1

Cav2.1 = molecular target: T12, Cav2.1 (Homo sapiens, UniProt O00555); test: cell-based; conditions: 100% = no change, <100% = inhibition
T12 construct: host or cells: HEK293 or CHO
Procedure, shortened: as §1

Cav2.2 = molecular target: T13, Cav2.2 (Homo sapiens, UniProt Q00975); test: cell-based; conditions: 100% = no change, <100% = inhibition
T13 construct: host or cells: HEK293 or CHO
Procedure, shortened: as §1

hERG = hERG (Homo sapiens, UniProt Q12809); test: in vitro; conditions: 100% = no change, <100% = inhibition
hERG, sequence (Q12809 whole entry): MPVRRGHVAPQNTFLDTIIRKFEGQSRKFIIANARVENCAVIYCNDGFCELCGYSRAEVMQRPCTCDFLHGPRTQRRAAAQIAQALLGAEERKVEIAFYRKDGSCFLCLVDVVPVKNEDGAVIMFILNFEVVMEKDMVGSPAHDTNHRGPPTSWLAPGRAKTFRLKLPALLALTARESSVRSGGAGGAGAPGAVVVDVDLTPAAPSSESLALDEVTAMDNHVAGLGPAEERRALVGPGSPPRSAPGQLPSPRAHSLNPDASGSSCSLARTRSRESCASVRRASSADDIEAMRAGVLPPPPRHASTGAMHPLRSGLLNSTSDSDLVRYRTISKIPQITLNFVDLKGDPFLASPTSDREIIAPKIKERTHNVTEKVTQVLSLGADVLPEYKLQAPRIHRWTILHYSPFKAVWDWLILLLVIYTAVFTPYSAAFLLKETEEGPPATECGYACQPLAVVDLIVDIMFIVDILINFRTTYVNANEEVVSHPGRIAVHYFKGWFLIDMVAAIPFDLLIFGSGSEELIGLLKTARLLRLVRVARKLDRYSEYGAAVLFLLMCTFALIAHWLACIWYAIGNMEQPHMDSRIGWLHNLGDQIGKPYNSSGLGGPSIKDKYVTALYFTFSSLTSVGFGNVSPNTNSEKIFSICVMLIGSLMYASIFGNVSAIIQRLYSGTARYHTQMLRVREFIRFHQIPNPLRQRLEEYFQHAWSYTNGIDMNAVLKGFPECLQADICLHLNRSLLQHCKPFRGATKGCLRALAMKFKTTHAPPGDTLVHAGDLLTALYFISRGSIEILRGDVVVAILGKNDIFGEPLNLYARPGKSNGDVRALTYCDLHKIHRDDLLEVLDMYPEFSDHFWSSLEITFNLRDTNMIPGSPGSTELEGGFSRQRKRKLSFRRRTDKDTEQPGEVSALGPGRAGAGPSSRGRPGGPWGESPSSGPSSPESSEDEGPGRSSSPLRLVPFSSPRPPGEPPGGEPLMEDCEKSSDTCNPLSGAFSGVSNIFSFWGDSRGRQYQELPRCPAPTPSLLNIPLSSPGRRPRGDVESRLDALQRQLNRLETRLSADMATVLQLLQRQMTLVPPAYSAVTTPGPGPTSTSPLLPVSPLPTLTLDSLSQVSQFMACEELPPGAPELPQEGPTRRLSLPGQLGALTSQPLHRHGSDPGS
Procedure, shortened: as §1

Nav1.5 = Nav1.5 (Homo sapiens, UniProt Q14524); test: in vitro; conditions: 100% = no change; for Activity of Nav1.5 with peptide, expressed as a percentage of the reference compound: peptide at 0.2 μM; for Activity of Nav1.5 with peptide (percentage of the reference compound): peptide at 20 μM
Nav1.5, sequence (Q14524 whole entry): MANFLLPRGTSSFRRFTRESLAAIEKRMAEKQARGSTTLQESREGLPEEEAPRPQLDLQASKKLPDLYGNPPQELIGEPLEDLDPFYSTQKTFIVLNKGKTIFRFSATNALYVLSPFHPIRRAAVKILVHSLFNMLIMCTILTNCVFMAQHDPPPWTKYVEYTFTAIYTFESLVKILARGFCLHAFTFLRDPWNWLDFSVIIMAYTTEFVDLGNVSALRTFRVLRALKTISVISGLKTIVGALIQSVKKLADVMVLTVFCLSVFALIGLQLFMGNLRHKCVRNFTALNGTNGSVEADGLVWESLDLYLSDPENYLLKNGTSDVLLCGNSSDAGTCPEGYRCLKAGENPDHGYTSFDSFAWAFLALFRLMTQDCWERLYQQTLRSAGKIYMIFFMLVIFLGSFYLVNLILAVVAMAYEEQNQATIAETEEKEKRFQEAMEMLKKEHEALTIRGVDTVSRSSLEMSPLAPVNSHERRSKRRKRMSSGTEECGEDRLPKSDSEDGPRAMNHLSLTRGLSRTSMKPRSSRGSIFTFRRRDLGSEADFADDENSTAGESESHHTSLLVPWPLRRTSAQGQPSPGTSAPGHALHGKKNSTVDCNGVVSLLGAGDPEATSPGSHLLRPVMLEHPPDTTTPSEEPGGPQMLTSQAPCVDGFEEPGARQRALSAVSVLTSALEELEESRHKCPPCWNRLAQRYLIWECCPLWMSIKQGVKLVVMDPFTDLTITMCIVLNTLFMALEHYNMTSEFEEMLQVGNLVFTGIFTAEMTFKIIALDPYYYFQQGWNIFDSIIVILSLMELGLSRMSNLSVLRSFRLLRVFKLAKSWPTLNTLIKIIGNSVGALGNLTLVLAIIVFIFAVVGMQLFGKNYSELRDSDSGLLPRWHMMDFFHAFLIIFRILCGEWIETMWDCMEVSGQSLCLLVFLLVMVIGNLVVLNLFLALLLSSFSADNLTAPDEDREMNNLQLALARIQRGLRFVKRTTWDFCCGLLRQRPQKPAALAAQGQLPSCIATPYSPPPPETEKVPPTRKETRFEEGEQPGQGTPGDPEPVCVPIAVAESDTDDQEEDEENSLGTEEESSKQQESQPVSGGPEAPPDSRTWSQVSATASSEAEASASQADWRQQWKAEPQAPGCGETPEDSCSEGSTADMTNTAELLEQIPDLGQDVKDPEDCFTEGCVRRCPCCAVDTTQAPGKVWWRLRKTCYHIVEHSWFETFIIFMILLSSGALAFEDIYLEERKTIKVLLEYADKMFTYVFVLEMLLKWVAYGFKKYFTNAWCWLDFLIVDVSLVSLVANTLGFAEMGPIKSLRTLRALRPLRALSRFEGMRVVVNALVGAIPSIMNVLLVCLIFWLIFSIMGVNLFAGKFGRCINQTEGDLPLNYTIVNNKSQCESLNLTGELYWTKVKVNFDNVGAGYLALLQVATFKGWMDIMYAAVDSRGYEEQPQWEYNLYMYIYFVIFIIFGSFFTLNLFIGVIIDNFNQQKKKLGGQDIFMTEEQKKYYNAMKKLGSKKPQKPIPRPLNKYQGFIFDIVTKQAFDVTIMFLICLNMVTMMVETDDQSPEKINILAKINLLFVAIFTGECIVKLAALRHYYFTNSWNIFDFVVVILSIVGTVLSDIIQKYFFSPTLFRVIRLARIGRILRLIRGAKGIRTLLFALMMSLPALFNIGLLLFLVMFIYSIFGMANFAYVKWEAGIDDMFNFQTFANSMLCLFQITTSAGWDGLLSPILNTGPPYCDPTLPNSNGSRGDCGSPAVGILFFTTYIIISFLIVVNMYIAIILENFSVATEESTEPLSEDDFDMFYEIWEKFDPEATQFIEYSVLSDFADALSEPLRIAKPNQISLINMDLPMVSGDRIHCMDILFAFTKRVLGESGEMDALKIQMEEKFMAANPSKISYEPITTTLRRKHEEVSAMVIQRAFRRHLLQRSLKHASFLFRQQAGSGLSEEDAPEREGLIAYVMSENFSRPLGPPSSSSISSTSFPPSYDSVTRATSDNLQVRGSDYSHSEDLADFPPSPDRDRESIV
Procedure, shortened: as §1

Kir2.1 = molecular target: T14, Kir2.1 (Homo sapiens, UniProt P63252); test: Ion channel panel (IonWorks Barracuda): Kir2.1; type: cell-based; conditions: 100% = no change, <100% = inhibition
T14 construct: host or cells: HEK293 or CHO
Procedure, shortened: as §1

TRPA1 = molecular target: T15, TRPA1 (Homo sapiens, UniProt O75762); test: Ion channel panel (IonWorks Barracuda): TRPA1; type: cell-based; conditions: 100% = no change, <100% = inhibition
T15 construct: host or cells: HEK293 or CHO
Procedure, shortened: as §1

[1] = first of two Nav1.7 columns (probably TP1)
[2] = second of two Nav1.7 columns (probably TP2)
[3] = first of two Nav1.5 columns (probably TP1)
[4] = second of two Nav1.5 columns (probably TP2)

3 (GSSEKDCIKHLQRCRENKDCCSKKCSRRGTNPEKRCR) [compound 3]
Activity of TRPV1 with peptide, expressed as a percentage of the reference compound (TRPV1; peptide at 0.2 μM): 107% | Activity of TRPV1 with peptide (percentage of the reference compound) (TRPV1; peptide at 20 μM): 95% | Activity of NR2B with peptide, expressed as a percentage of the reference compound (NR2B; peptide at 0.2 μM): 93% | Activity of NR2B with peptide (percentage of the reference compound) (NR2B; peptide at 20 μM): 74% | Activity of a4b2 with peptide, expressed as a percentage of the reference compound (α4β2; peptide at 0.2 μM): 93% | Activity of a4b2 with peptide (percentage of the reference compound) (α4β2; peptide at 20 μM): 91% | Activity of Kv1.1 with peptide, expressed as a percentage of the reference compound (Kv1.1; peptide at 0.2 μM): 99% | Activity of Kv1.1 with peptide (percentage of the reference compound) (Kv1.1; peptide at 20 μM): 73% | Activity of Kv1.3 with peptide, expressed as a percentage of the reference compound (Kv1.3; peptide at 0.2 μM): 92% | Activity of Kv1.3 with peptide (percentage of the reference compound) (Kv1.3; peptide at 20 μM): 87% | Activity of Kv1.2 with peptide, expressed as a percentage of the reference compound (Kv1.2; peptide at 0.2 μM): 88% | Activity of Kv1.2 with peptide (percentage of the reference compound) (Kv1.2; peptide at 20 μM): 45% | Activity of GABA with peptide, expressed as a percentage of the reference compound (GABA; peptide at 0.2 μM): 77% | Activity of GABA with peptide (percentage of the reference compound) (GABA; peptide at 20 μM): 111% | Activity of 5HT3a with peptide (percentage of the reference compound) (5HT3a): 98% | Activity of 5HT3a with peptide, expressed as a percentage of the reference compound (5HT3a): 109% | Activity of a3b4 with peptide, expressed as a percentage of the reference compound (α3β4; peptide at 0.2 μM): 99% | Activity of a3b4 with peptide (percentage of the reference compound) (α3β4; peptide at 20 μM): 92% | Activity of Nav1.7 with peptide, expressed as a percentage of the reference compound (Nav1.7; [1]): 107% | Activity of Nav1.7 with peptide, expressed as a percentage of the reference compound (Nav1.7; [2]): 113% | Activity of Nav1.7 with peptide (percentage of the reference compound) (Nav1.7; [1]): 90% | Activity of Nav1.7 with peptide (percentage of the reference compound) (Nav1.7; [2]): 68% | Activity of NR2A with peptide, expressed as a percentage of the reference compound (NR2A; peptide at 0.2 μM): 97% | Activity of NR2A with peptide (percentage of the reference compound) (NR2A; peptide at 20 μM): 100% | Activity of Kv2.1 with peptide, expressed as a percentage of the reference compound (Kv2.1; peptide at 0.2 μM): 80% | Activity of Kv2.1 with peptide (percentage of the reference compound) (Kv2.1; peptide at 20 μM): 81% | Activity of Cav2.1 with peptide, expressed as a percentage of the reference compound (Cav2.1; peptide at 0.2 μM): 102% | Activity of Cav2.1 with peptide (percentage of the reference compound) (Cav2.1; peptide at 20 μM): 131% | Activity of Cav2.2 with peptide, expressed as a percentage of the reference compound (Cav2.2; peptide at 0.2 μM): 103% | Activity of Cav2.2 with peptide (percentage of the reference compound) (Cav2.2; peptide at 20 μM): 110% | Activity of hERG with peptide, expressed as a percentage of the reference compound (hERG; peptide at 0.2 μM): 121% | Activity of hERG with peptide (percentage of the reference compound) (hERG; peptide at 20 μM): 81% | Activity of Nav1.5 with peptide, expressed as a percentage of the reference compound (Nav1.5; [3]): 113% | Activity of Nav1.5 with peptide, expressed as a percentage of the reference compound (Nav1.5; [4]): 111% | Activity of Nav1.5 with peptide (percentage of the reference compound) (Nav1.5; [3]): 114% | Activity of Nav1.5 with peptide (percentage of the reference compound) (Nav1.5; [4]): 115% | Activity of Kir2.1 with peptide, expressed as a percentage of the reference compound (Kir2.1; peptide at 0.2 μM): 107% | Activity of Kir2.1 with peptide (percentage of the reference compound) (Kir2.1; peptide at 20 μM): 93% | Activity of TRPA1 with peptide, expressed as a percentage of the reference compound (TRPA1; peptide at 0.2 μM): 105% | Activity of TRPA1 with peptide (percentage of the reference compound) (TRPA1; peptide at 20 μM): 117%
